Test results as given in publication PMC10907699, “The IRE1β-mediated unfolded protein response is repressed by the chaperone AGR2 in mucin producing cells” (The EMBO Journal, 2023).
Changes are numbered by the printed parent chain. Names and notes keep the numbering of the source. Each block holds one molecule with its values, some of them ahead of it.

T1: mouse AGR2 (21-175) C81E (mouse, UniProt O88312 21-175, C81E)
T1 sequence: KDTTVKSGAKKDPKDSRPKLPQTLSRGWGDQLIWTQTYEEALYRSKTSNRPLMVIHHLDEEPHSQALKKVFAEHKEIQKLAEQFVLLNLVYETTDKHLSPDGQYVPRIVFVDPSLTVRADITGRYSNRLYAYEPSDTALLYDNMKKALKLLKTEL

T2: mouse AGR2 (21-175) C81S (mouse, UniProt O88312 21-175, C81S)
T2 sequence: T1 sequence with E61S

T3: MBP-hIRE1bLD (35-428)-NanoLuc-H6 (human, UniProt Q76MJ5 35-428)
T3 construct: IRE1β (ERN2) luminal domain, human, residues 35-428; No step that cleaves MBP is described; also called IRE1β-nluc donor; IRE1β LD-nanoluc; source: T7 Express lysY/Iq E. coli, purified (Ni-NTA, amylose resin, two gel filtrations); not shown: NanoLuc (complete, WT), C-terminal, kept
T3 sequence (looked up): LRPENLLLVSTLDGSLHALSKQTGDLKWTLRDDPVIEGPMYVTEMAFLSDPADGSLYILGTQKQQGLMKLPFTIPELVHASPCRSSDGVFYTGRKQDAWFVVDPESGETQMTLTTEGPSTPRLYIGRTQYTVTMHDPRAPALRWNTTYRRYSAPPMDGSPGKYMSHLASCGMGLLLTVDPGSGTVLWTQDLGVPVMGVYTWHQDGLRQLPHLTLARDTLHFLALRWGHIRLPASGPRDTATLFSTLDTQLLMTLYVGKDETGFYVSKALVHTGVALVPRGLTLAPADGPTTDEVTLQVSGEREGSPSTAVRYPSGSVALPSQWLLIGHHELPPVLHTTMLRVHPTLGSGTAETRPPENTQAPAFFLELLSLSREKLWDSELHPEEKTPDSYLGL

B1: MBP-hIRE1b_LD_(35-428)-AviTag-His7 (domain or fragment, human, UniProt Q76MJ5 35-428, looked up)
chain: T3 sequence (looked up)
modifications: biotin on the AviTag (endogenous biotinylation of a fraction of the protein in E. coli)
notes: IRE1β (ERN2) luminal domain, human, residues 35-428; No step that cleaves MBP is described; also called IRE1β LD; IRE1β LD probe; source: T7 Express lysY/Iq E. coli, purified (Ni-NTA, amylose resin, two gel filtrations); not shown: AviTag, C-terminal, kept
B2: MBP-hIRE1β LD-mGL-AviTag-His (domain or fragment, human, UniProt Q76MJ5 35-428, looked up)
chain: T3 sequence (looked up)
notes: IRE1β (ERN2) luminal domain, human; C-terminal mGL inserted in the MBP-hIRE1bLD of UK2796 (residues 35-428); also called GFP-tagged IRE1β LD; IRE1β LD-mGL acceptor; source: T7 Express lysY/Iq E. coli, purified (Ni-NTA, amylose resin, two gel filtrations); not shown: MBP, N-terminal, kept; mGL (monomeric Green Lantern), C-terminal, kept
B3: mouse AGR2 (21-175) C81E (natural protein, UniProt O88312 21-175, looked up)
chain: T1 sequence
notes: AGR2, mouse, residues 21-175, active site mutant C81E; also called AGR2 C81E; UK2835; source: T7 Express lysY/Iq E. coli, purified (Ni-NTA, SENP2 cleavage, reverse Ni-NTA); not shown: His6, N-terminal, cleaved; SUMO3, N-terminal, cleaved
B4: mouse AGR2 (21-175) C81S (natural protein, UniProt O88312 21-175, looked up)
chain: T1 sequence with E61S
notes: AGR2, mouse, residues 21-175, active site mutant C81S; also called AGR2 C81S; UK2795; source: T7 Express lysY/Iq E. coli, purified (Ni-NTA, SENP2 cleavage, reverse Ni-NTA); not shown: His6, N-terminal, cleaved; SUMO3, N-terminal, cleaved

Experiments:
AGR2 (Homo sapiens) = AGR2 (Homo sapiens) (UniProt O95994); settings: cited from earlier work
[1] = molecular target: MBP-hIRE1β LD ∆C-mGL-AviTag-His (human) (UniProt Q76MJ5); test: mass photometry (ISCAT); IRE1β LD wt or ∆C alone at the indicated concentrations; HK buffer, room temperature (~21 °C)
mouse AGR2 (21-175) C81E = molecular target: T1, mouse AGR2 (21-175) C81E; test: BLI; K1/2 max from steady-state one-site fit
mouse AGR2 (21-175) C81S = molecular target: T2, mouse AGR2 (21-175) C81S; test: BLI; K1/2 max from steady-state one-site fit
[2] = molecular target: T3, MBP-hIRE1bLD (35-428)-NanoLuc-H6; test: FRET or BRET; kinetic readings: AGR2 variants or unlabelled IRE1β LD competitor added to the pre-formed IRE1β LD-nanoluc / IRE1β LD-mGL BRET pair; BRET ratio every 20 s, one-phase exponential decay; settings: both partners purified
[3] = molecular target: the molecule itself; test: mass photometry (ISCAT); IRE1β LD wt or ∆C alone at the indicated concentrations; HK buffer, room temperature (~21 °C)
[4] = molecular target: B1; test: BLI; biotinylated IRE1 LD loaded on streptavidin sensors, exposed sequentially to increasing concentrations of AGR2; 30 °C; HK buffer (50 mM HEPES-KOH pH 7.4, 150 mM KCl) with 0.05% Triton X-100 and 1 mM TCEP; signal against AGR2 concentration fitted to a one-site specific binding function (the methods call the result a KD of binding); settings: both partners purified

Molecule: AGR2 (from UniProt O95994)
Kd (AGR2 (Homo sapiens)): 8 µM

stoichiometry N [1]: 2
Molecule: MBP-hIRE1β LD ∆C-mGL-AviTag-His (from UniProt Q76MJ5 35-428) (domain or fragment)

Molecule: B1
Kd (mouse AGR2 (21-175) C81E): 78.5 µM
Kd (mouse AGR2 (21-175) C81S): 124 µM
binding result [2]: binds

Molecule: B2
stoichiometry N [3]: 2

Molecule: B3
binding result [4]: binds

Molecule: B4
binding result [4]: binds
